Source: paper PMC4893198
Each block holds one molecule with its values, some of them ahead of it.

Key:
OST-NLS-mCherry-NRF2 = OST-NLS-mCherry-NRF2 (UniProt Q16236); assay: pull-down
OST-progerin (human) = OST-progerin (human) (UniProt P02545); assay: pull-down

interaction relative to WT lamin A (OST-NLS-mCherry-NRF2): 248%
Molecule: HA-progerin (from UniProt P02545-6 1-614) (natural protein)

NRF2 pulled down relative to OST-lamin A (OST-progerin (human)): 142%
B1: FLAG-NLS-NRF2 (natural protein)
chain: MMDLELPPPGLPSQQDMDLIDILWRQDIDLGVSREVFDFSQRRKEYELEKQKKLEKERQEQLQKEQEKAFFAQLQLDEETGEFLPIQPAQHIQSETSGSANYSQVAHIPKSDALYFDDCMQLLAQTFPFVDDNEVSSATFQSLVPDIPGHIESPVFIATNQAQSPETSVAQVAPVDLDGMQQDIEQVWEELLSIPELQCLNIENDKLVETTMVPSPEAKLTEVDNYHFYSSIPSMEKEVGNCSPHFLNAFEDSFSSILSTEDPNQLTVNSLNSDATVNTDFGDEFYSAFIAEPSISNSMPSPATLSHSLSELLNGPIDVSDLSLCKAFNQNHPESTAEFNDSDSGISLNTSPSVASPEHSVESSSYGDTLLGLSDSEVEELDSAPGSVKQNGPKTPVHSSGDMVQPLSPSQGQSTHVHDAQCENTPEKELPVSPGHRKTPFTKDKHSSRLEAHLTRDELRAKALHIPFPVEKIINLPVVDFNEMMSKEQFNEAQLALIRDIRRRGKNKVAAQNCRKRKLENIVELEQDLDHLKDEKEKLLKEKGENDKSLHLLKKQLSTLYLEVFSMLRDEDGKPYSPSEYSLQQTRDGNVFLVPKSKKPDVKKN

NRF2 bound relative to OST-lamin A (OST-progerin (human)): 275%
B2: recombinant HIS6x-NRF2 (natural protein)
chain: B1 chain
